Source: the supplement of paper PMC10567573

B1: EPB41L3 (parent)
chain: SDYISEFRFAPNHTKELEDKVIEL

Variants of: B1
Assay: protein stability index of a GFP-peptide fusion (GPS, HEK-293T) (PSI 1-6); higher = more stable
Settings: c terminus: a fixed tail appended
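Further: lentivirally expressed fusions sorted by FACS into six bins by GFP to DsRed ratio, PSI derived from sequencing read proportions per bin multiplied by bin number.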

Protein stability index of substitutions, site by site:
Y3: S 3.59 | M 2.29 | E 4.43 | N 3.18 | I 1.86 | V 1.97 | W 2.39 | R 2.34 | F 1.91 | D 4.03 | G 2.94 | C 2.38 | A 2.76 | Q 3.28 | T 3.06
I4: N 4.27 | F 2.77 | M 3.18 | H 3.96 | P 3.76 | V 3.02 | R 3.13 | K 3.23 | C 3.6 | G 4.11 | D 4.2 | E 3.92 | Y 3.65 | L 2.36 | Q 3.98 | S 3.49 | A 3.63 | T 2.65 | W 3.03
P11: Q 2.57 | T 2.82 | W 2.33 | V 2.23 | L 2.11 | M 2.65 | I 2.49 | R 2.64 | N 2.26 | S 2.26 | H 1.88 | C 2.12 | G 2.44 | Y 1.8 | E 4.36 | F 2.16 | K 2.3 | A 2.68 | D 4.29
R8: Q 4.1 | K 4.26 | I 3.24 | M 3.49 | P 4.4 | V 3.39 | W 3.17 | F 2.04 | T 3.99 | Y 3.31 | A 3.7 | D 4.51 | N 3.94 | S 4.3 | C 4.05 | E 4.47 | H 4.48 | G 4.38 | L 3.24
S5: C 1.97 | T 2.18 | I 2.02 | E 3.79 | F 1.74 | G 1.8 | Y 1.66 | R 2.62 | D 3.8 | N 2.22 | V 2.19 | Q 2.7 | P 2.24 | H 2.15 | K 2.75 | A 1.93 | W 1.82 | L 1.92 | M 1.27
S1: V 1.74 | E 2.15 | Q 2.45 | M 1.92 | W 1.76 | D 2.25 | R 1.85 | A 2.38 | T 2.01 | G 2.12 | F 1.96 | I 1.71 | Y 2.38 | L 2.19 | P 2.71 | C 1.75 | H 2.1 | N 1.94 | K 1.72
F9: K 4.29 | V 4.44 | G 4.6 | S 4.79 | C 3.93 | A 4.79 | R 4.58 | W 3.54 | N 4.59 | Y 2.25 | E 4.97 | I 3.83 | Q 4.63 | L 4.09 | P 4.76 | M 4.03 | D 4.97 | H 4.41 | T 4.24
A10: L 3.45 | E 4.21 | F 3.3 | I 2.33 | T 2.05 | H 1.86 | P 3.96 | D 4.37 | N 3.33 | S 2.61 | W 2.96 | K 3.99 | M 3 | Y 3.09 | C 1.56 | R 3.54 | G 3.92 | Q 2.35 | V 1.84
F7: M 4 | I 3.94 | G 4.91 | W 2.42 | C 4.2 | L 3.6 | K 4.38 | A 4.4 | H 4.26 | N 4.96 | Y 3.71 | E 4.96 | D 4.89 | R 4.4 | V 4.46 | T 4.57 | S 4.12 | P 4.75 | Q 4.79
